# In the supplement of paper PMC10567573:
# B1: LRRC45 (parent)
# chain: DLSAANEKNLLLQNQVDELERKFR
# Variants of: B1
# Assay: protein stability index of a GFP-peptide fusion (GPS, HEK-293T) (PSI 1-6); higher = more stable
# Conditions: c terminus: a fixed tail appended
# 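Further: lentivirally expressed fusions sorted by FACS into six bins by GFP to DsRed ratio, PSI derived from sequencing read proportions per bin multiplied by bin number.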
row,Variant,protein stability index
1,DLSAANEKNLTLQNQVDELERKFR [L11T],3.86
2,DLSAANEKNLELQNQVDELERKFR [L11E],4.84
3,DLSAANEKNLMLQNQVDELERKFR [L11M],3.56
4,DLSAANEKNLHLQNQVDELERKFR [L11H],4.59
5,DLSAANEKNLWLQNQVDELERKFR [L11W],3.89
6,DLSAANEKNLLLQNQVDELERKPR [F23P],4.77
7,DLSAANEKNLLLQNQVDELERKCR [F23C],4.01
8,DLSAANEKNLLLQNQVDELERKMR [F23M],4.63
9,DLSAANEKNLLLQNQVDELERKTR [F23T],4.39
10,DLSAANEKNLLLQNQVDELERKER [F23E],5.34
11,DLSAANEKNLLLQNQVDELERKHR [F23H],3.98
12,DLSAANEKNLLLQNQVDELERKGR [F23G],4.6
13,DLSAANEKNLLLQNQVDELERKKR [F23K],4.33
14,DLSAANEKNLLLQNQVDELERKLR [F23L],4.33
15,DLSAANEKNLLLQNQVDELERKQR [F23Q],4.29
16,DLSAANWKNLLLQNQVDELERKFR [E7W],2.72
17,DLSAANVKNLLLQNQVDELERKFR [E7V],3.46
18,DLSAANLKNLLLQNQVDELERKFR [E7L],2.96
19,DLSAANSKNLLLQNQVDELERKFR [E7S],3.74
20,DLSAANMKNLLLQNQVDELERKFR [E7M],3.14
21,DLSAANNKNLLLQNQVDELERKFR [E7N],3.01
22,DLSAANTKNLLLQNQVDELERKFR [E7T],3.69
23,DLSAANEKNLLLQKQVDELERKFR [N14K],3.69
24,DLSAANEKNLLLQAQVDELERKFR [N14A],3.95

row,Variant,protein stability index
1,DLSAANEKNLLLQEQVDELERKFR [N14E],4.19
2,DLSAANEKNLLLQRQVDELERKFR [N14R],3.76
3,DLSAANEKNLLLQDQVDELERKFR [N14D],4.54
4,DLSAANEKNLLLQFQVDELERKFR [N14F],3.02
5,DLSAANEKNLLLQSQVDELERKFR [N14S],3.51
6,DLSAANEKNLLLQQQVDELERKFR [N14Q],4.49
7,DLSAANEKNLLLQNQVDMLERKFR [E18M],3.23
8,DLSAANEKNLLLQNQVDNLERKFR [E18N],3.56
9,DLSAANEKNLLLQNQVDQLERKFR [E18Q],3.56
10,DLSAANEKNLLLQNQVDYLERKFR [E18Y],3.26
11,DLSAANEKNLLLQNQVDRLERKFR [E18R],2.96
12,DLSAANEKNLLLQNQVDDLERKFR [E18D],5.06
13,DLSAANEKNLLLQNQVDILERKFR [E18I],2.49
14,DLSAANEKNLLLQNQVDALERKFR [E18A],3.57
15,DLSAANEKNLLLQNQVDSLERKFR [E18S],3.33
16,DLSAANEKNLLLQNQDDELERKFR [V16D],4.12
17,DLSAANEKNLLLQNQWDELERKFR [V16W],3.55
18,DLSAANEKNLLLQNQKDELERKFR [V16K],4.42
19,DLSAANEKNLLLQNQYDELERKFR [V16Y],3.6
20,DLSAANEKNLLLQNQMDELERKFR [V16M],3.79
21,DLSAANEKNLLLQNQSDELERKFR [V16S],4.32
22,DLSAANEKNLLLQNQCDELERKFR [V16C],3.88
23,DLSAANEKNMLLQNQVDELERKFR [L10M],4.09
24,DLSAANEKNYLLQNQVDELERKFR [L10Y],3.71

row,Variant,protein stability index
1,DLSAANEKNCLLQNQVDELERKFR [L10C],4.07
2,DLSAANEKNQLLQNQVDELERKFR [L10Q],4.51
3,DLSAANEKNFLLQNQVDELERKFR [L10F],3.94
4,DLSAANEKNDLLQNQVDELERKFR [L10D],4.86
5,DLSAANEKNGLLQNQVDELERKFR [L10G],4.77
6,DLSAANERNLLLQNQVDELERKFR [K8R],4.15
7,DLSAANEFNLLLQNQVDELERKFR [K8F],3.85
8,DLSAANESNLLLQNQVDELERKFR [K8S],4.36
9,DLSAANEYNLLLQNQVDELERKFR [K8Y],3.63
10,DLSAANEANLLLQNQVDELERKFR [K8A],4.62
11,DLSAANEINLLLQNQVDELERKFR [K8I],3.43
12,DLSAANEHNLLLQNQVDELERKFR [K8H],4.06
13,DLSAANEGNLLLQNQVDELERKFR [K8G],4.17
14,DLPAANEKNLLLQNQVDELERKFR [S3P],4.31
15,DLCAANEKNLLLQNQVDELERKFR [S3C],3.74
16,DLFAANEKNLLLQNQVDELERKFR [S3F],3.49
17,DLYAANEKNLLLQNQVDELERKFR [S3Y],3.58
18,DLMAANEKNLLLQNQVDELERKFR [S3M],4.11
19,DLWAANEKNLLLQNQVDELERKFR [S3W],3.18
20,DLVAANEKNLLLQNQVDELERKFR [S3V],3.89
21,DLNAANEKNLLLQNQVDELERKFR [S3N],4.07
22,DLQAANEKNLLLQNQVDELERKFR [S3Q],4.04
23,DLRAANEKNLLLQNQVDELERKFR [S3R],4.26
24,DLHAANEKNLLLQNQVDELERKFR [S3H],4.13

row,Variant,protein stability index
1,DLSCANEKNLLLQNQVDELERKFR [A4C],3.85
2,DLSMANEKNLLLQNQVDELERKFR [A4M],3.49
3,DLSYANEKNLLLQNQVDELERKFR [A4Y],3.91
4,DLSHANEKNLLLQNQVDELERKFR [A4H],4.01
5,DLSGANEKNLLLQNQVDELERKFR [A4G],3.77
6,DLSPANEKNLLLQNQVDELERKFR [A4P],4.11
7,DLSFANEKNLLLQNQVDELERKFR [A4F],3.61
8,DLSLANEKNLLLQNQVDELERKFR [A4L],3.06
9,DLSSANEKNLLLQNQVDELERKFR [A4S],4.05
10,MLSAANEKNLLLQNQVDELERKFR [D1M],4.23
11,LLSAANEKNLLLQNQVDELERKFR [D1L],3.93
12,HLSAANEKNLLLQNQVDELERKFR [D1H],4.42
13,YLSAANEKNLLLQNQVDELERKFR [D1Y],4.19
14,WLSAANEKNLLLQNQVDELERKFR [D1W],3.75
15,ILSAANEKNLLLQNQVDELERKFR [D1I],3.93
16,GLSAANEKNLLLQNQVDELERKFR [D1G],4.55
17,VLSAANEKNLLLQNQVDELERKFR [D1V],4.34
18,CLSAANEKNLLLQNQVDELERKFR [D1C],3.73
19,ELSAANEKNLLLQNQVDELERKFR [D1E],3.61
20,DLSAANEKNLLLQNFVDELERKFR [Q15F],2.32
21,DLSAANEKNLLLQNVVDELERKFR [Q15V],3.48
22,DLSAANEKNLLLQNAVDELERKFR [Q15A],3.57
